# Test results: the RNAGym collection of RNA variant scans (doi:10.7554/elife.80360)
# B1: HDV Ribozyme (parent)
# chain: GGCCGGCAUGGUCCCAGCCUCCUCGCUGGCGCCGGCUGGGCAACAUUCCGAGGGGACCGUCCCCUCGGUAAUGGCGAAUGGGACCCA
# Variants of: B1
# Experiment: self-cleavage, relative activity (ratio to wild type); higher = more cleavage; co-transcriptional
row,Variant,self-cleavage
1,U9A G55C,1.26
2,U9C C15U,0.776
3,U9C C15A,0.748
4,A8U C41A,0.443
5,A8U G40U,0.415
6,A8U G40C,0.234
7,U9A C75G,0.0665
8,U9A C49U,0.831
9,U9C A16U,1.08
10,U9C A16C,0.519
11,U9C C33U,0.895
12,A8G G82A,0.237
13,A8U G52A,0.692
14,A8U G52U,0.872
15,U9A C26A,0.76
16,U9A C26G,0.623
17,U9A A77C,0.383
18,U9A A77U,0.506
19,A8G U69C,1.16
20,A8G U69G,1.19
21,U9C C58A,1.11
22,U9A G39A,0.665
23,U9A G82U,0.375
24,U9A G82A,0.425

row,Variant,self-cleavage
1,U9A A16C,0.712
2,U9A A16G,1.37
3,U9A U37C,1.07
4,U9C C57A,1.09
5,A8U A42U,0.314
6,U9A A87C,1.04
7,U9A A87G,1.13
8,U9A A87U,1.03
9,U9A G40A,1.02
10,U9A G40U,0.897
11,U9A U72G,0.787
12,U9A U72C,0.688
13,A8U G35A,0.426
14,U9C A71C,0.791
15,U9C A71U,0.969
16,U9C C44A,0.594
17,U9C C44U,0.739
18,U9A G54C,0.935
19,U9A G54U,1.06
20,U9A G25U,0.175
21,U9A G25A,0.426
22,A8U,0.863
23,A8U U60G,0.89
24,A8U U60C,0.492

row,Variant,self-cleavage
1,A8U U46C,0.554
2,A8U U46A,0.415
3,A8U G53U,0.867
4,A8U G53A,0.665
5,U9A C66A,0.95
6,U9C C48G,1.44
7,U9C C48U,0.748
8,U9A G81U,0.332
9,U9A A71G,0.506
10,U9A A71U,0.688
11,U9C A43C,0.378
12,U9C A43U,0.378
13,A8U A77U,0.0898
14,A8U A77G,0.779
15,A8U A77C,0.0665
16,U9A G59C,1.03
17,U9A G59A,1.19
18,A8U A16C,0.831
19,U9A A56U,0.867
20,U9A C41U,1.07
21,U9A C41G,0.831
22,U9A C57U,1.19
23,U9A C57A,1.02
24,U9A C44G,0.914

row,Variant,self-cleavage
1,U9A C44A,0.831
2,U9A C44U,0.95
3,A8U G80A,0.227
4,U9C C19G,0.0519
5,U9C C19U,0.208
6,U9A G73A,0.425
7,U9A G73U,0.244
8,U9A G73C,0.227
9,U9A A45U,0.719
10,U9A A45G,0.733
11,U9A A45C,0.723
12,U9A C13U,1.36
13,U9A C13A,0.119
14,U9C A83U,0.525
15,U9C A83G,0.665
16,A8U G11A,0.151
17,U9A G68A,0.955
18,U9A G68C,1.16
19,U9A G68U,1.08
20,U9C C14A,0.982
21,U9A G53A,1.2
22,U9A G53U,1.28
23,A8U G76C,0.965
24,U9A G35A,0.665

row,Variant,self-cleavage
1,U9A G35C,0.44
2,U9A A83G,0.67
3,U9A A83U,0.643
4,U9C A51G,0.962
5,U9A U60A,0.923
6,A8U C58U,1.15
7,A8U C58A,0.862
8,U9A U27G,1.13
9,U9A G52A,0.99
10,U9A G17C,0.297
11,U9A G17U,0.383
12,A8U U37A,0.201
13,A8U U37C,0.87
14,U9A C33G,0.0692
15,U9A C33U,0.808
16,U9A C33A,0.185
17,A8U A56G,0.957
18,A8U A56U,0.705
19,A8U A56C,1.25
20,A8U C26G,1.03
21,A8U C26A,0.997
22,A8U C26U,0.86
23,A8U U47A,0.767
24,A8U A70C,0.692

row,Variant,self-cleavage
1,A8G G76C,1.13
2,A8U C61G,0.623
3,A8U C63A,0.415
4,U9A U79G,0.529
5,U9A U79C,0.237
6,A8U C33A,0.185
7,U9C C13U,0.453
8,U9C C13G,0.158
9,U9C C13A,0.158
10,U9C C21U,0.214
11,U9C C21A,0.0639
12,U9C C21G,0.277
13,A8G U37C,1.22
14,A8U A87U,0.963
15,A8G U60C,1.16
16,A8U G54A,0.831
17,A8U G54U,0.574
18,A8U G55U,0.635
19,A8U G55A,0.749
20,U9A U20A,0.185
21,U9A U20C,0.128
22,U9A U20G,0.151
23,A8U U9C,0.906
24,A8U U9A,0.63

row,Variant,self-cleavage
1,A8U G25U,0.106
2,U9C C41U,1.05
3,U9C A87C,0.813
4,A8G U9A,0.506
5,A8G U9C,1.11
6,U9A G76C,1.07
7,U9A G76A,0.955
8,U9A C62A,1.03
9,U9A C62G,0.939
10,U9A G50C,0.898
11,U9A G50A,1.12
12,U9A G50U,1.31
13,A8U A45C,0.166
14,U9A C84A,0.886
15,U9A C84G,0.554
16,U9A C15G,0.499
17,U9A C15U,1.02
18,A8U U23G,0.415
19,U9C A45G,0.95
20,A8U C86A,0.997
21,U9A G67U,0.849
22,U9A G67A,0.937
23,U9A C32U,0.911
24,U9A C32A,0.0898

row,Variant,self-cleavage
1,A8U C21G,0.119
2,A8U C21U,0.147
3,U9A U69C,0.802
4,U9A U69A,0.87
5,A8U U27A,0.578
6,A8U U27C,0.196
7,A8U G50C,0.939
8,A8U G50U,0.848
9,U9A U65G,1.11
10,U9A U65A,1.05
11,U9A G31A,0.554
12,U9A G31U,0.208
13,U9A G11C,0.609
14,U9A G11A,0.539
15,U9A C30U,0.776
16,U9A C30G,0.138
17,U9A C30A,0.732
18,U9A G10C,0.875
19,U9A G10U,0.855
20,U9C C36G,0
21,U9C A42C,0.475
22,U9C A42G,0.886
23,A8U C44A,0.449
24,A8U C44U,0.415

row,Variant,self-cleavage
1,A8U C44G,0.731
2,A8U U79C,0.177
3,A8G U12A,0
4,A8G U12C,0.151
5,U9A C24G,0.111
6,U9A C24U,0.449
7,U9A C24A,0.914
8,A8U G81A,0.148
9,A8U G81C,0.115
10,U9A U12G,1.06
11,A8U C30A,0.299
12,A8U C30U,0.529
13,U9A C85U,0.906
14,A8U U72A,0.369
15,A8U U72C,0.443
16,A8U U72G,0.289
17,A8U G73A,0.323
18,A8U G73U,0.199
19,A8U G73C,0.0831
20,A8G U65C,1.05
21,U9A C63U,1.19
22,A8U G74C,0.166
23,A8U A78U,0.128
24,A8U A78G,0.388

row,Variant,self-cleavage
1,U9A G34U,0.374
2,A8U C18G,0.172
3,A8U C18A,0.0554
4,A8U C18U,0.631
5,A8U C22G,0.19
6,A8U C22U,0.598
7,A8G U72A,0.554
8,A8G U72C,0.293
9,A8U C75U,0.298
10,A8U C75A,0
11,A8G G81A,0.0875
12,A8U C48A,0.875
13,A8U C48G,1.25
14,A8U G29U,0.0437
15,A8U G29A,0.0852
16,A8U G17C,0.0755
17,U9C C26A,1.25
18,A8G G80U,0.173
19,A8U U20C,0
20,A8U U20A,0.166
21,A8G U27C,0.791
22,A8G U27A,0.867
23,U9A G28U,0.0898
24,U9A G28C,0

row,Variant,self-cleavage
1,U9A C21G,0.0462
2,U9A C21A,0.0739
3,U9A C64G,0.759
4,U9A C64U,1.04
5,U9A U46A,0.743
6,U9C A56G,0.935
7,U9C A56U,1.04
8,U9C C22G,0
9,U9C C22U,0.727
10,A8G G74C,0.0639
11,A8G G74A,0.256
12,U9A G74C,0.0573
13,U9A G74U,0.585
14,A8U G10A,0.684
15,A8U G10U,0.341
16,U9A A78C,0.359
17,U9A A78G,1.04
18,U9A A78U,0.332
19,A8U G67C,0.718
20,U9C A77C,0.364
21,A8U U12A,0.208
22,A8U U12G,0.594
23,U9A C22A,0.388
24,U9A C22U,0.831

row,Variant,self-cleavage
1,A8U G68C,0.752
2,A8U G68U,0.858
3,U9C C30G,0.0462
4,U9A C48A,1.01
5,U9A C48U,0.914
6,A8U G82U,0.185
7,A8U G82C,0.0923
8,A8U G59C,1.02
9,A8U G59A,0.79
10,U9A C19A,0.194
11,A8U C19U,0.0308
12,U9A G80A,0.402
13,U9A G80C,0.189
14,U9A G29U,0.0639
15,U9A G29A,0.0678
16,U9C A70C,0.997
17,U9A C14G,0.604
18,U9A C14U,1.11
19,A8U G28C,0.166
20,A8U G28U,0.131
21,A8U G38U,0.326
22,A8U G38A,0.141
23,A8U G38C,0.095
24,U9C C18A,0.128

row,Variant,self-cleavage
1,U9C C18G,0.138
2,U9C C18U,0.457
3,A8U C15G,0.277
4,A8U C15A,0.369
5,A8U G31C,0.115
6,U9C C49G,1.03
7,U9C C49U,0.959
8,U9C C49A,0.703
9,U9A G38U,0.237
10,U9A G38C,0.237
11,U9A G38A,0.233
12,A8G U23A,0.9
13,A8G U23G,0.776
14,A8U C36A,0.0811
15,A8U C36G,0.125
16,A8U C36U,0.554
17,A8U C57U,0.91
18,A8U C24U,0.787
19,A8U C24A,0.208
20,A8U C13U,0.302
21,U9C A78U,0.185
22,U9C A78G,0.914
23,U9A C61G,0.682
24,U9A C61U,0.986

row,Variant,self-cleavage
1,U9A C58U,0.77
2,U9A C58A,0.789
3,U9A C58G,0.929
4,U9A A70U,0.997
5,U9A A70C,0.767
6,A8U C14U,0.864
7,A8U G39A,0.318
8,U9A A42C,0.252
9,U9A A42G,0.361
10,A8U C49U,0.739
11,A8U C49G,0.76
12,A8U C49A,1.13
13,U9C C32U,0.862
14,U9C C32A,0
15,A8G U20C,0.217
16,A8G U46C,0.782
17,U9A A51U,0.914
18,U9A A51G,0.59
19,U9A U47C,0.997
20,A8U U69G,0.59
21,U9A U23G,0.7
22,A8U C64A,0.538
